{
  "source": "paper doi:10.1101/2020.07.16.20155853",
  "target": "SARS-CoV-2 Cys-like protease (Mpro) (SARS-CoV-2 (Wuhan-Hu-1 strain))",
  "test": "SEC",
  "data": [
    {"substance": "SARS-CoV-2 Cys-like protease (Mpro) (enzyme)", "values": [
      {"measurement": "stoichiometry N", "result": 2}
    ]}
  ]
}
